Assay results taken from publication PMC9977683, “IFNγ binding to extracellular matrix prevents fatal systemic toxicity” (Nature Immunology, 2023).

Experiments:
[1] = molecular target: IFNγ receptor (Homo sapiens) (UniProt P15260); conditions: cited from earlier work
[2] = molecular target: T1, IFNγR1 extracellular domain (amino acids 26–254), recombinant (mouse, UniProt P15261 26-254); assay: SPR; Biacore T200, CM4 chip coated with anti-His5 onto which recombinant IFNγR1 was immobilised; IFNγ variants injected over 180 s at 0, 1, 2.5, 5, 10, 25 and 50 nM; conditions: both partners purified
T1 construct: mouse interferon-gamma receptor 1, extracellular domain, amino acids 26-254, cloned from mouse cDNA into pET26b-N-His6-SUMO; Immobilised on the chip through anti-His5; source: E. coli (T7 express, with pRARE plasmid), periplasmic expression, purified (osmotic shock, HisTrap, gel filtration); not shown: His6-SUMO, N-terminal, cleaved; His6, C-terminal, kept
T1 sequence (looked up): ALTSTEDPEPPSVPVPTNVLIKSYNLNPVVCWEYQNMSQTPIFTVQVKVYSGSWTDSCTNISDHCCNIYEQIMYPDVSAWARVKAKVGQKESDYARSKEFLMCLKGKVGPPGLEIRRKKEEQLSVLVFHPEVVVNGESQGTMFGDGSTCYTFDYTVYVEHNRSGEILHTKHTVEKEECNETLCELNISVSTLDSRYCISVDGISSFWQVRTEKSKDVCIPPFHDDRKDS

Sequence of IFNγ receptor (Homo sapiens) (P15260 18-245): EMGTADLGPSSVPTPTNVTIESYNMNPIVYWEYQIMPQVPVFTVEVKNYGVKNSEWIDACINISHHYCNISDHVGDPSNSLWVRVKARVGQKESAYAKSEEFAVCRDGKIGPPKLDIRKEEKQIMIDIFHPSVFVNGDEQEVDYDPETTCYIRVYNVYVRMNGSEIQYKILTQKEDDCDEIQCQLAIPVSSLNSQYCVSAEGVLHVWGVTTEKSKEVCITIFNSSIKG
Sequence of IFNγ (P01579 24-161): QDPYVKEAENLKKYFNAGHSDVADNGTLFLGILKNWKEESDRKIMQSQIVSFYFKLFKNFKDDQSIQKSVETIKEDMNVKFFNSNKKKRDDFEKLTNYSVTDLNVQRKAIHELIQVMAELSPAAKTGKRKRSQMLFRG

| Molecule | Kd [1] [nM] | binding result [2] |
| --- | --- | --- |
| IFNγ (from UniProt P01579) | 0.5 |  |
| Interferon-γ (IFNγ), recombinant (ligand, mouse, UniProt P01580 23-155, looked up, mouse interferon-gamma, cDNA without the leader peptide, codon optimized, in pET28-N-His6-SUMO; also called IFNγ^wt; source: E. coli (T7 express, with pRARE plasmid), purified (HisTrap, size-exclusion chromatography); not shown: His6-SUMO, N-terminal, cleaved) HGTVIESLESLNNYFNSSGIDVEEKSLFLDIWRNWQKDGDMKILQSQIISFYLRLFEVLKDNQAISNNISVIESHLITTFFSNSKAKKDAFMSIAKFEVNNPQVQRQAFNELIRVVHQLLPESSLRKRKRSRC |  | binds |
| IFNγ–green fluorescent protein fusion protein (IFNγ–GFP), recombinant (ligand, mouse, UniProt P01580 23-155, looked up, mouse interferon-gamma, cDNA without the leader peptide, with GFP fused to the C-terminus; source: E. coli (T7 express, with pRARE plasmid), purified (HisTrap, Superdex 200); not shown: His6-SUMO, N-terminal, cleaved; GFP, C-terminal, kept) HGTVIESLESLNNYFNSSGIDVEEKSLFLDIWRNWQKDGDMKILQSQIISFYLRLFEVLKDNQAISNNISVIESHLITTFFSNSKAKKDAFMSIAKFEVNNPQVQRQAFNELIRVVHQLLPESSLRKRKRSRC |  | binds |
